Data: US20210122824A1 (ADAGENE, published 2021)

Tests used:
[1] = biological target: T1, human PD-L1-Fc fusion protein (Sino Biological Cat #10084-H02H) (human, UniProt Q9NZQ7 19-239); assay: SPR (Biacore T200), human PD-L1-Fc immobilized, IgG in solution
T1 construct: bought; not shown: Fc part of the bought fusion

[2] = biological target: T2, human PD-L1 expressed on cell surface (human, UniProt Q9NZQ7 19-290); assay: flow cytometry on cells expressing human PD-L1 (legend of FIG. 5)
T2 construct: whole, on cells; also called full-length human PD-L1; cell surface PD-L1

[3] = biological target: T3, human PD1 expressed on HEK293F cells (human, UniProt Q15116 25-288); assay: flow cytometry on transfected HEK293F cells
T3 construct: whole, on cells

[4] = biological target: T4, human TIM3 expressed on HEK293F cells (human, UniProt Q8TDQ0 22-301); assay: flow cytometry on transfected HEK293F cells
T4 construct: whole, on cells

[5] = biological target: T5, human LAG3 expressed on HEK293F cells (human, UniProt P18627 23-525); assay: flow cytometry on transfected HEK293F cells
T5 construct: whole, on cells
T5 sequence (looked up): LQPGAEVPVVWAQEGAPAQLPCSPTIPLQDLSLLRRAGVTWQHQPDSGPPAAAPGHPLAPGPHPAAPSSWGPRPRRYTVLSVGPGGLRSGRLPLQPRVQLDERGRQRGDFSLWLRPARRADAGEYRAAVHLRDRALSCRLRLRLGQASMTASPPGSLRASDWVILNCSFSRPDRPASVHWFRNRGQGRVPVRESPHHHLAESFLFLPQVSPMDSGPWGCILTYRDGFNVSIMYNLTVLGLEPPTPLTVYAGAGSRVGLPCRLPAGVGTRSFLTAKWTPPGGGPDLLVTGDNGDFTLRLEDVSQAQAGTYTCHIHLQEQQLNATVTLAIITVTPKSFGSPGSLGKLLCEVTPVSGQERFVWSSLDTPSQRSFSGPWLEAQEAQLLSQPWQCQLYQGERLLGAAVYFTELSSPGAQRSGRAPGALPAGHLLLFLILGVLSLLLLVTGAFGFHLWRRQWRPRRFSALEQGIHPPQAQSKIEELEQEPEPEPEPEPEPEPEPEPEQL

[6] = biological target: T6, human B7-H3 expressed on HEK293F cells (human, UniProt Q5ZPR3 29-534); assay: flow cytometry on transfected HEK293F cells
T6 construct: whole, on cells
T6 sequence (looked up): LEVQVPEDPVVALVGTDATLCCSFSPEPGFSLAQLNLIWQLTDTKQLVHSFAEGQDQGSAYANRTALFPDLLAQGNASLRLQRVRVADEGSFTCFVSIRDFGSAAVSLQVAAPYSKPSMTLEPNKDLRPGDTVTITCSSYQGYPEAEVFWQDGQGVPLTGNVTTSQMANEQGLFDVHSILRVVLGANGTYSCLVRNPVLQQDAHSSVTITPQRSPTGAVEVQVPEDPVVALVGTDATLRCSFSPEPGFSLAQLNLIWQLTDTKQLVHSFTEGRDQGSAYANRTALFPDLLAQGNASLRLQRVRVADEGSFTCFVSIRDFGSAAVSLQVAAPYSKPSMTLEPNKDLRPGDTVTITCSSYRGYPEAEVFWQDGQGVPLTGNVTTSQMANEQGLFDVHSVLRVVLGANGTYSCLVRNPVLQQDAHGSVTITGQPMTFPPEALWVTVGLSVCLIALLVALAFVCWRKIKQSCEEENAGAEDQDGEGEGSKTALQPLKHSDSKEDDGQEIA

[7] = biological target: T7, human CTLA4 expressed on HEK293F cells (human, UniProt P16410 36-223); assay: flow cytometry on transfected HEK293F cells
T7 construct: whole, on cells

[8] = biological target: T2, human PD-L1 expressed on cell surface; assay: flow cytometry on stable cell line 293T-002 expressing PD-L1; 293T-002 cells expressing PD-L1, flow cytometry
[9] = biological target: T1, human PD-L1-Fc fusion protein (Sino …); assay: SPR (Biacore T200), PD-L1-Fc immobilized (about 500 RU), IgG in solution
[10] = biological target: T8, rat PD-L1-Fc fusion protein (Sino Biological cat #80450-R08H) (rat); assay: as above
T8 construct: text calls all four immobilized proteins PD-L1-Fc fusion proteins

[11] = biological target: T9, rhesus PD-L1-Fc fusion protein (Sino Biological cat #90251-C02H) (rhesus, UniProt F6PJN1 19-239); assay: as above
T9 construct: not shown: Fc part

[12] = biological target: T10, mouse PD-L1-Fc fusion protein (mouse, UniProt Q9EP73 19-238, limits assumed); assay: as above
T10 construct: not shown: Fc part

[13] = biological target: T2, human PD-L1 expressed on cell surface; assay: blocking by flow cytometry, HEK293F cells expressing full-length human PD-L1, 100 nM antibody then 100 nM biotinylated PD1-His (blocked ligand), Alexa fluor 633 streptavidin; isotype control panel Q2 35.1%
[14] = biological target: T1, human PD-L1-Fc fusion protein (Sino …); assay: SPR (Biacore T200), human PD-L1-Fc immobilized (300 RU), IgG in solution
[15] = biological target: T1, human PD-L1-Fc fusion protein (Sino …); assay: competition ELISA, PD1-Fc (1 ug/mL) coated, biotinylated PD-L1-Fc mixed with antibody, HRP neutravidin; blocked ligand PD1-Fc
[16] = biological target: T2, human PD-L1 expressed on cell surface; assay: cell ELISA on HCC827 cells fixed with 4% paraformaldehyde, absorbance at 450 nm

T10 sequence (Q9EP73 19-238 limits assumed): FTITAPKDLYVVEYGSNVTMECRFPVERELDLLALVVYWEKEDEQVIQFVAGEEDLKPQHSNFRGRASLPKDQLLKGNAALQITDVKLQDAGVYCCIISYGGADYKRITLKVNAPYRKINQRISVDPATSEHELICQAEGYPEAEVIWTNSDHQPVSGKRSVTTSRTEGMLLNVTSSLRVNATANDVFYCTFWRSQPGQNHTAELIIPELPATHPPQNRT
T1 sequence (Q9NZQ7 19-239 limits assumed): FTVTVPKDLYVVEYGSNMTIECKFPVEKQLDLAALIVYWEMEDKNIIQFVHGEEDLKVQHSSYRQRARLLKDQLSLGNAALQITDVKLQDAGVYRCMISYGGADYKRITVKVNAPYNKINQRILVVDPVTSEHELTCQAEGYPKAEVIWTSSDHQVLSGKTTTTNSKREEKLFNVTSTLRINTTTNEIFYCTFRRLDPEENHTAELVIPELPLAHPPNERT
T2 sequence (Q9NZQ7 19-290): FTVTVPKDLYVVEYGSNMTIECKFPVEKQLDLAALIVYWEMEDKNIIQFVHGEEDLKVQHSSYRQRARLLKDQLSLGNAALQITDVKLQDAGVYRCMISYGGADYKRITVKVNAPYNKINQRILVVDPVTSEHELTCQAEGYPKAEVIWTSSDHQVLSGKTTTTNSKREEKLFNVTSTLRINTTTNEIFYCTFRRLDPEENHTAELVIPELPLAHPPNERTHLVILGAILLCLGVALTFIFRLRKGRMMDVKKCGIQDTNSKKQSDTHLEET
T7 sequence (P16410 36-223): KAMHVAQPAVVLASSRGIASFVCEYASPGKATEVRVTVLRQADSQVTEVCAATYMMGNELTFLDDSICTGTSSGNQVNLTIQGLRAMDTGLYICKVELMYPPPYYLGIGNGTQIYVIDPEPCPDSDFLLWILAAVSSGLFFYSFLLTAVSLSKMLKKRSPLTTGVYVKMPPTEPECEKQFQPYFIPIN
T3 sequence (Q15116 25-288): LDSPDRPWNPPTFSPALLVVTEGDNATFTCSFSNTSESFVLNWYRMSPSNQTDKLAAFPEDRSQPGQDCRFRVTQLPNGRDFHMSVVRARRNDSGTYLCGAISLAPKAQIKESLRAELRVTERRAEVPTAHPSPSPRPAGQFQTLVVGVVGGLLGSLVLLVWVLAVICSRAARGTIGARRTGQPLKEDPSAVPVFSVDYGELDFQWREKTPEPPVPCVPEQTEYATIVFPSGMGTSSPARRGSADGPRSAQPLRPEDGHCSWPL

Kd [1]: < 0.01 nM | EC50 [2]: ~1 nM | binding result [3]: no binding (tested: 100 nM) | binding result [4]: no binding (tested: 100 nM) | binding result [5]: no binding (tested: 100 nM) | binding result [6]: no binding (tested: 100 nM) | binding result [7]: no binding (tested: 100 nM) | EC50 [8]: 1.08 nM | Kd [9]: 0.00619 nM | koff [9]: 2.97e-05 s⁻¹ | kon [9]: 4.8e+06 M⁻¹ s⁻¹ | Kd [10]: 0.0209 nM | koff [10]: 0.000106 s⁻¹ | kon [10]: 5.07e+06 M⁻¹ s⁻¹ | Kd [11]: 0.00185 nM | koff [11]: 7.27e-06 s⁻¹ | kon [11]: 3.93e+06 M⁻¹ s⁻¹ | Kd [12]: 0.00186 nM | koff [12]: 2.06e-05 s⁻¹ | kon [12]: 1.11e+07 M⁻¹ s⁻¹ | Q2 (percent of cells positive for GFP and for the APC signal of PD1-His, antibody present) [13]: 0.27% | Kd [14]: 0.00863 nM | koff [14]: 5.73e-05 s⁻¹ | kon [14]: 6.64e+06 M⁻¹ s⁻¹ | IC50 (read off the curve) [15]: ~6 nM | EC50 [16]: 0.3 nM
B1: TY21421 (antibody, V domains shown)
VH: EVQLVESGGGLVQPGGSLRLSCAASGYSISSGYYWGWIRQAPGKGLEWIGIIYPSGGGTNYAQKFQGRVTISRDNSKNTLYLQLNSLRAEDTAVYYCARGGGLGFDYWGQGTLVTVSS
VL: DIQLTQSPSSLSASVGDRVTITCRASQSIPSFLNWYQQKPGKAPKLLIYAASSLQSGVPSRFSGSGSGTDFTLTISSLQPEDFATYYCQHYISWPRQFTFGQGTKVEIKR
notes: IgG1 (wild type) made from Fab B15041, from HEK293F cells
